Data reported in patent publication US20220389073A1, “Novel Mini-Insulin With Extended C-Terminal A Chain” (University of Utah Research Foundation, priority 2019, published 2022).

Assays:
hIR = hIR (Homo sapiens, UniProt P06213); assay: hIR activation / insulin signaling activation; assay type: cell-based
[1] = known property of shortened human insulin; cited from earlier work

Substance | hIR activation activity compared with enzymatically synthetic DOI (hIR) | potency, fold weaker than human insulin (hIR; relative to human insulin) | oligomeric state [1] | potency for hIR activation compared with human insulin (hIR; FIG. 7)
Des-octapeptide (B23-30) human insulin [DOI] | same | 1,000 fold | monomeric | –
quadruple DOI mutant: DOI with A8 His, A9 Arg, B10 Glu, B20 Tyr; SEQ ID NO: 12 and SEQ ID NO: 3 | – | – | – | comparable to that of human insulin
